*1 amine or outer side, *2 acyl side, *3 side chain or, on linkers, in order; H or OH if unused. Side-chain parts run from the residue outwards. [ ]: non-standard residue; d: D form. The star is where a group is joined. C18 diacid = O=C(O)CCCCCCCCCCCCCCCCC(=O)*; C16 diacid = O=C(O)CCCCCCCCCCCCCCC(=O)*; γGlu = O=C(O)[C@H](CCC(=O)[*:2])N[*:1]; Nva = CCC[C@H](N)C(=O)O; Abu = CC[C@H](N)C(=O)O; Dap = NC[C@H](N)C(=O)O; AEEA = NCCOCCOCC(=O)O

The target in assay [1] is human corticotropin-releasing factor 2a (CRF2a receptor) (human), Q13324. In words: cell-based or functional assay.
Sequence of human corticotropin-releasing factor 2a (CRF2a receptor) (human), Q13324 (Q13324 20-411): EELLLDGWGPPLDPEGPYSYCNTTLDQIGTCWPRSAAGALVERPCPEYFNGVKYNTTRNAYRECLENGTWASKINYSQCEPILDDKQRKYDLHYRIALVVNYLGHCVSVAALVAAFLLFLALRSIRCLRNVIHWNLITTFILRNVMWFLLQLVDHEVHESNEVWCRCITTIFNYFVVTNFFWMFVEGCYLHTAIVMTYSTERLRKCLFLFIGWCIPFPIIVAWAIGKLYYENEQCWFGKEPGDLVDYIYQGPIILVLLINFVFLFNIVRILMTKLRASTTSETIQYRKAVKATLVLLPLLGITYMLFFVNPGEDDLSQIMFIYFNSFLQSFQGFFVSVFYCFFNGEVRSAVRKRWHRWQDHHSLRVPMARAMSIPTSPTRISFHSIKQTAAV
The target of a further assay is T1, CRF1R receptor (UniProt P34998 24-415, limits assumed).
T1 sequence (looked up): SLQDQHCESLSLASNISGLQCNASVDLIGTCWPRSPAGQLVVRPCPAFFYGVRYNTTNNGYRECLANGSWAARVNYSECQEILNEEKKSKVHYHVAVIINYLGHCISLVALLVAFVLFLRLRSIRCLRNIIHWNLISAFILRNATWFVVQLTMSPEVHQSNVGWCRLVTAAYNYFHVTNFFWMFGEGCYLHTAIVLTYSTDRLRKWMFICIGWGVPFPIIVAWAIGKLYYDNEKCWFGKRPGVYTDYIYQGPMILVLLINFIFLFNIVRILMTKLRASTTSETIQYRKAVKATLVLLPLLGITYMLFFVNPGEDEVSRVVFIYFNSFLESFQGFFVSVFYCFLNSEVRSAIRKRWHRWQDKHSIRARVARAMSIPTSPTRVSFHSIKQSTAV
In words: cell-based or functional assay.

B1: SEQ ID NO 108 (peptide)
peptide: Ac-IVLSLD[dV]PIKLK([AEEA-AEEA-γGlu-C18 diacid])KILLEQEKQKKQREQAETNEQILAQV-NH2
SMILES: CC[C@H](C)[C@H](NC(C)=O)C(=O)N[C@H](C(=O)N[C@@H](CC(C)C)C(=O)N[C@@H](CO)C(=O)N[C@@H](CC(C)C)C(=O)N[C@@H](CC(=O)O)C(=O)N[C@@H](C(=O)N1CCC[C@H]1C(=O)N[C@H](C(=O)N[C@@H](CCCCN)C(=O)N[C@@H](CC(C)C)C(=O)N[C@@H](CCCCNC(=O)COCCOCCNC(=O)COCCOCCNC(=O)CC[C@H](NC(=O)CCCCCCCCCCCCCCCCC(=O)O)C(=O)O)C(=O)N[C@@H](CCCCN)C(=O)N[C@H](C(=O)N[C@@H](CC(C)C)C(=O)N[C@@H](CC(C)C)C(=O)N[C@@H](CCC(=O)O)C(=O)N[C@@H](CCC(N)=O)C(=O)N[C@@H](CCC(=O)O)C(=O)N[C@@H](CCCCN)C(=O)N[C@@H](CCC(N)=O)C(=O)N[C@@H](CCCCN)C(=O)N[C@@H](CCCCN)C(=O)N[C@@H](CCC(N)=O)C(=O)N[C@@H](CCCNC(=N)N)C(=O)N[C@@H](CCC(=O)O)C(=O)N[C@@H](CCC(N)=O)C(=O)N[C@@H](C)C(=O)N[C@@H](CCC(=O)O)C(=O)N[C@H](C(=O)N[C@@H](CC(N)=O)C(=O)N[C@@H](CCC(=O)O)C(=O)N[C@@H](CCC(N)=O)C(=O)N[C@H](C(=O)N[C@@H](CC(C)C)C(=O)N[C@@H](C)C(=O)N[C@@H](CCC(N)=O)C(=O)N[C@H](C(N)=O)C(C)C)[C@@H](C)CC)[C@@H](C)O)[C@@H](C)CC)[C@@H](C)CC)C(C)C)C(C)C
Molecule B1 had an EC50 [nM] (cAMP) in assay [1] of 1.14 nM. Besides, the “Emax (% I)” value in the assay with CRF1R receptor amounted to 4%.

B2: SEQ ID NO 55 (peptide)
peptide: Ac-IVLSLD[dV]PIKLK([γGlu-C16 diacid])KILLEQEKQKKQREQAETN[Dap]QILAQV-NH2
SMILES: CC[C@H](C)[C@H](NC(C)=O)C(=O)N[C@H](C(=O)N[C@@H](CC(C)C)C(=O)N[C@@H](CO)C(=O)N[C@@H](CC(C)C)C(=O)N[C@@H](CC(=O)O)C(=O)N[C@@H](C(=O)N1CCC[C@H]1C(=O)N[C@H](C(=O)N[C@@H](CCCCN)C(=O)N[C@@H](CC(C)C)C(=O)N[C@@H](CCCCNC(=O)CC[C@H](NC(=O)CCCCCCCCCCCCCCC(=O)O)C(=O)O)C(=O)N[C@@H](CCCCN)C(=O)N[C@H](C(=O)N[C@@H](CC(C)C)C(=O)N[C@@H](CC(C)C)C(=O)N[C@@H](CCC(=O)O)C(=O)N[C@@H](CCC(N)=O)C(=O)N[C@@H](CCC(=O)O)C(=O)N[C@@H](CCCCN)C(=O)N[C@@H](CCC(N)=O)C(=O)N[C@@H](CCCCN)C(=O)N[C@@H](CCCCN)C(=O)N[C@@H](CCC(N)=O)C(=O)N[C@@H](CCCNC(=N)N)C(=O)N[C@@H](CCC(=O)O)C(=O)N[C@@H](CCC(N)=O)C(=O)N[C@@H](C)C(=O)N[C@@H](CCC(=O)O)C(=O)N[C@H](C(=O)N[C@@H](CC(N)=O)C(=O)N[C@@H](CN)C(=O)N[C@@H](CCC(N)=O)C(=O)N[C@H](C(=O)N[C@@H](CC(C)C)C(=O)N[C@@H](C)C(=O)N[C@@H](CCC(N)=O)C(=O)N[C@H](C(N)=O)C(C)C)[C@@H](C)CC)[C@@H](C)O)[C@@H](C)CC)[C@@H](C)CC)C(C)C)C(C)C
For the molecule B2, the EC50 [nM] (cAMP) in assay [1] was determined as 0.42 nM. Moreover, the “Emax (% I)” value with CRF1R receptor is 5%.

B3: SEQ ID NO 107 (peptide)
peptide: Ac-IVLSLD[dV]PIKLK([AEEA-AEEA-γGlu-C18 diacid])KILLEQEKQKKQREQAETN[Dap]QILAQV-NH2
SMILES: CC[C@H](C)[C@H](NC(C)=O)C(=O)N[C@H](C(=O)N[C@@H](CC(C)C)C(=O)N[C@@H](CO)C(=O)N[C@@H](CC(C)C)C(=O)N[C@@H](CC(=O)O)C(=O)N[C@@H](C(=O)N1CCC[C@H]1C(=O)N[C@H](C(=O)N[C@@H](CCCCN)C(=O)N[C@@H](CC(C)C)C(=O)N[C@@H](CCCCNC(=O)COCCOCCNC(=O)COCCOCCNC(=O)CC[C@H](NC(=O)CCCCCCCCCCCCCCCCC(=O)O)C(=O)O)C(=O)N[C@@H](CCCCN)C(=O)N[C@H](C(=O)N[C@@H](CC(C)C)C(=O)N[C@@H](CC(C)C)C(=O)N[C@@H](CCC(=O)O)C(=O)N[C@@H](CCC(N)=O)C(=O)N[C@@H](CCC(=O)O)C(=O)N[C@@H](CCCCN)C(=O)N[C@@H](CCC(N)=O)C(=O)N[C@@H](CCCCN)C(=O)N[C@@H](CCCCN)C(=O)N[C@@H](CCC(N)=O)C(=O)N[C@@H](CCCNC(=N)N)C(=O)N[C@@H](CCC(=O)O)C(=O)N[C@@H](CCC(N)=O)C(=O)N[C@@H](C)C(=O)N[C@@H](CCC(=O)O)C(=O)N[C@H](C(=O)N[C@@H](CC(N)=O)C(=O)N[C@@H](CN)C(=O)N[C@@H](CCC(N)=O)C(=O)N[C@H](C(=O)N[C@@H](CC(C)C)C(=O)N[C@@H](C)C(=O)N[C@@H](CCC(N)=O)C(=O)N[C@H](C(N)=O)C(C)C)[C@@H](C)CC)[C@@H](C)O)[C@@H](C)CC)[C@@H](C)CC)C(C)C)C(C)C
Turning to B3, the EC50 [nM] (cAMP) in assay [1] is 1.43 nM. For the same molecule, the “Emax (% I)” value with CRF1R receptor was 0%.

B4: SEQ ID NO 17 (peptide)
peptide: Ac-IVLSLD[dV]PIKLK([γGlu-C16 diacid])QILLKQERQKKQREQAEKNEQILEQV-NH2
SMILES: CC[C@H](C)[C@H](NC(C)=O)C(=O)N[C@H](C(=O)N[C@@H](CC(C)C)C(=O)N[C@@H](CO)C(=O)N[C@@H](CC(C)C)C(=O)N[C@@H](CC(=O)O)C(=O)N[C@@H](C(=O)N1CCC[C@H]1C(=O)N[C@H](C(=O)N[C@@H](CCCCN)C(=O)N[C@@H](CC(C)C)C(=O)N[C@@H](CCCCNC(=O)CC[C@H](NC(=O)CCCCCCCCCCCCCCC(=O)O)C(=O)O)C(=O)N[C@@H](CCC(N)=O)C(=O)N[C@H](C(=O)N[C@@H](CC(C)C)C(=O)N[C@@H](CC(C)C)C(=O)N[C@@H](CCCCN)C(=O)N[C@@H](CCC(N)=O)C(=O)N[C@@H](CCC(=O)O)C(=O)N[C@@H](CCCNC(=N)N)C(=O)N[C@@H](CCC(N)=O)C(=O)N[C@@H](CCCCN)C(=O)N[C@@H](CCCCN)C(=O)N[C@@H](CCC(N)=O)C(=O)N[C@@H](CCCNC(=N)N)C(=O)N[C@@H](CCC(=O)O)C(=O)N[C@@H](CCC(N)=O)C(=O)N[C@@H](C)C(=O)N[C@@H](CCC(=O)O)C(=O)N[C@@H](CCCCN)C(=O)N[C@@H](CC(N)=O)C(=O)N[C@@H](CCC(=O)O)C(=O)N[C@@H](CCC(N)=O)C(=O)N[C@H](C(=O)N[C@@H](CC(C)C)C(=O)N[C@@H](CCC(=O)O)C(=O)N[C@@H](CCC(N)=O)C(=O)N[C@H](C(N)=O)C(C)C)[C@@H](C)CC)[C@@H](C)CC)[C@@H](C)CC)C(C)C)C(C)C
B4: the EC50 [nM] (cAMP) in assay [1] is 0.21 nM. Also, in the assay with CRF1R receptor, the “Emax (% I)” value is 12%.

B5: SEQ ID NO 51 (peptide)
peptide: Ac-IVLSLD[dV]PIKLK([γGlu-C16 diacid])KILLEQEKQKKQREQAETN[Abu]QILAQV-NH2
SMILES: CC[C@H](NC(=O)[C@H](CC(N)=O)NC(=O)[C@@H](NC(=O)[C@H](CCC(=O)O)NC(=O)[C@H](C)NC(=O)[C@H](CCC(N)=O)NC(=O)[C@H](CCC(=O)O)NC(=O)[C@H](CCCNC(=N)N)NC(=O)[C@H](CCC(N)=O)NC(=O)[C@H](CCCCN)NC(=O)[C@H](CCCCN)NC(=O)[C@H](CCC(N)=O)NC(=O)[C@H](CCCCN)NC(=O)[C@H](CCC(=O)O)NC(=O)[C@H](CCC(N)=O)NC(=O)[C@H](CCC(=O)O)NC(=O)[C@H](CC(C)C)NC(=O)[C@H](CC(C)C)NC(=O)[C@@H](NC(=O)[C@H](CCCCN)NC(=O)[C@H](CCCCNC(=O)CC[C@H](NC(=O)CCCCCCCCCCCCCCC(=O)O)C(=O)O)NC(=O)[C@H](CC(C)C)NC(=O)[C@H](CCCCN)NC(=O)[C@@H](NC(=O)[C@@H]1CCCN1C(=O)[C@H](NC(=O)[C@H](CC(=O)O)NC(=O)[C@H](CC(C)C)NC(=O)[C@H](CO)NC(=O)[C@H](CC(C)C)NC(=O)[C@@H](NC(=O)[C@@H](NC(C)=O)[C@@H](C)CC)C(C)C)C(C)C)[C@@H](C)CC)[C@@H](C)CC)[C@@H](C)O)C(=O)N[C@@H](CCC(N)=O)C(=O)N[C@H](C(=O)N[C@@H](CC(C)C)C(=O)N[C@@H](C)C(=O)N[C@@H](CCC(N)=O)C(=O)N[C@H](C(N)=O)C(C)C)[C@@H](C)CC
For B5, the EC50 [nM] (cAMP) in assay [1] was determined as 0.12 nM. Also, in the assay with CRF1R receptor, the “Emax (% I)” value amounted to 9%.

B6: SEQ ID NO 52 (peptide)
peptide: Ac-IVLSLD[dV]PIKLK([γGlu-C16 diacid])KILLEQEKQKKQREQAETN[Nva]QILAQV-NH2
SMILES: CCC[C@H](NC(=O)[C@H](CC(N)=O)NC(=O)[C@@H](NC(=O)[C@H](CCC(=O)O)NC(=O)[C@H](C)NC(=O)[C@H](CCC(N)=O)NC(=O)[C@H](CCC(=O)O)NC(=O)[C@H](CCCNC(=N)N)NC(=O)[C@H](CCC(N)=O)NC(=O)[C@H](CCCCN)NC(=O)[C@H](CCCCN)NC(=O)[C@H](CCC(N)=O)NC(=O)[C@H](CCCCN)NC(=O)[C@H](CCC(=O)O)NC(=O)[C@H](CCC(N)=O)NC(=O)[C@H](CCC(=O)O)NC(=O)[C@H](CC(C)C)NC(=O)[C@H](CC(C)C)NC(=O)[C@@H](NC(=O)[C@H](CCCCN)NC(=O)[C@H](CCCCNC(=O)CC[C@H](NC(=O)CCCCCCCCCCCCCCC(=O)O)C(=O)O)NC(=O)[C@H](CC(C)C)NC(=O)[C@H](CCCCN)NC(=O)[C@@H](NC(=O)[C@@H]1CCCN1C(=O)[C@H](NC(=O)[C@H](CC(=O)O)NC(=O)[C@H](CC(C)C)NC(=O)[C@H](CO)NC(=O)[C@H](CC(C)C)NC(=O)[C@@H](NC(=O)[C@@H](NC(C)=O)[C@@H](C)CC)C(C)C)C(C)C)[C@@H](C)CC)[C@@H](C)CC)[C@@H](C)O)C(=O)N[C@@H](CCC(N)=O)C(=O)N[C@H](C(=O)N[C@@H](CC(C)C)C(=O)N[C@@H](C)C(=O)N[C@@H](CCC(N)=O)C(=O)N[C@H](C(N)=O)C(C)C)[C@@H](C)CC
As to B6, the EC50 [nM] (cAMP) in assay [1] stood at 0.17 nM. In the assay with CRF1R receptor, the “Emax (% I)” value was found to be 7%.

These data come from patent publication US20260001928A1 (CORTERIA PHARMACEUTICALS, priority 2022, published 2026).
